Test results: publication PMC5739284 (Nature microbiology, 2017)

Target: GST-His6-LC3B (recombinant) (human, UniProt Q9GZQ8 1-120)
Experiment: pull-down

SGGDDDWTHLSSK [synthetic p62 LIR peptide]
binding result: binds
